Read-outs that look alike come from different tables or passages of the source.
Columns and labels:
003m-P215S-S-3N = assay: flow cytometry, Expi293F cells, Lipofectamine 2000-mRNA
003m-P215S (RSV) [1] = assay: as above
003m-P215S-ΔF111-S-3N = assay: as above
[2] = target: 003m-P215S-ΔF111-1×GCN4t (RSV); assay: as above
003m-P215S-ΔF111 (RSV) = assay: as above
003m-P215S-1×GCN4t (RSV) [3] = assay: as above
[4] = target: 003m-P215S-ΔF111-1×GCN4t (RSV); assay: flow cytometry, Expi293F cells, mRNA-LNP (RL151); row 003m-P215S-ΔF111-1×GCN4t
003m-P215S-2×GCN4t (RSV) = assay: flow cytometry, Expi293F cells, Lipofectamine 2000-mRNA
003m-P215S (RSV) [5] = assay: as above; remark: listed apart in the source
[6] = target: RSV B-003m-P215S-1×GCN4t-ori_linker (RSV B); assay: flow cytometry, Expi293F cells, Lipofectamine 2000-mRNA; mRNA RQ3
[7] = target: RSV B-003m-P215S-1×GCN4t-C155S-C290S (RSV B); assay: as above
RSV B-003m-P215S (RSV B) [8] = assay: as above
[9] = target: RSV B-003m-P215S-1×GCN4t-ori_linker (RSV B); assay: flow cytometry, Expi293F cells, Lipofectamine 2000-mRNA; mRNA RQ2
[10] = target: RSV B-003m-P215S-1×GCN4t-C486D-C489D (RSV B); assay: as above
[11] = target: RSV B-003m-P215S-1×GCN4t-C102A-C362S (RSV B); assay: as above
[12] = target: RSV B-003m-P215S-1×GCN4t-G46S (RSV B); assay: as above
[13] = target: RSV B-003m-P215S-1×GCN4t-D92E (RSV B); assay: as above
[14] = target: RSV B-003m-P215S-1×GCN4t-C155S-C290S (RSV B); assay: as above
RSV B-003m-P215S (RSV B) [15] = assay: as above
[16] = target: RSV B-003m-P215S-1×GCN4t (RSV B); assay: as above
[17] = target: RSV B-003m-P215S-1×GCN4t-F190S (RSV B); assay: as above
[18] = target: wild-type RSV B F (RSV B); assay: flow cytometry, Expi293F cells, Lipofectamine 2000-mRNA; row WT-RQ1
003m-P215S-1×GCN4t (RSV) [19] = assay: flow cytometry, Expi293F cells, Lipofectamine 2000-mRNA; row 003m-P215S-1×GCN4t (ORIG)
003m-P215S-1×GCN4t (RSV) [20] = assay: flow cytometry, Expi293F cells, Lipofectamine 2000-mRNA; row 003m-P215S-1×GCN4t-opti1
003m-P215S-1×GCN4t (RSV) [21] = assay: flow cytometry, Expi293F cells, Lipofectamine 2000-mRNA; row 003M-P215S-1×GCN4t (ORIG)
003m-P215S-1×GCN4t (RSV) [22] = assay: flow cytometry, Expi293F cells, Lipofectamine 2000-mRNA; row 003M-P215S-1×GCNt (ORIG)
003m-P215S-1×GCN4t (RSV) [23] = assay: flow cytometry, Expi293F cells, Lipofectamine 2000-mRNA; row 003m-P215S-1×GCN4t
[24] = target: wild-type RSV B F (RSV B); assay: flow cytometry, Expi293F cells, Lipofectamine 2000-mRNA; row WT-RQ2
003m-1×GCN4t (RSV) = assay: flow cytometry, Expi293F cells transfected with the antigen's mRNA
DS-Cav1 (RSV) = assay: as above
DS-Cav1-1×GCN4t (RSV) = assay: as above
DS-Cav1-2×GCN4t (RSV) = assay: as above
003m-2×GCN4t (RSV) = assay: as above
[25] = target: 003m-P215S-DELL-1×GCN4t (RSV); assay: flow cytometry, Expi293F cells, Lipofectamine 2000-mRNA
[26] = target: 003m-P215S-KST-1×GCN4t (RSV); assay: as above
[27] = target: 003m-P215S-NAG-1×GCN4t (RSV); assay: as above
003m-P215S-1×GCN4t (RSV) [28] = assay: as above; remark: listed apart in the source

**Q.** Which MFI (003m-P215S-S-3N) does the source give for D25-AF488 (antibody) here?
**A.** Its MFI is 148000.

**Q.** What about the MFI (003m-P215S (RSV) [1]) of the same substance?
**A.** The MFI was 486000.

**Q.** And the MFI (003m-P215S-ΔF111-S-3N)?
**A.** The MFI was 704000.

**Q.** And the MFI [2]?
**A.** The MFI was 14700.

**Q.** And the MFI (003m-P215S-ΔF111 (RSV))?
**A.** Its MFI is 1.02e+06.

**Q.** And the MFI (003m-P215S-1×GCN4t (RSV) [3])?
**A.** Its MFI is 8630.

**Q.** What about the MFI [4] of the same substance?
**A.** The MFI was 682.

**Q.** What about the MFI (003m-P215S-2×GCN4t (RSV)) of the same substance?
**A.** Its MFI is 5120.

**Q.** And the MFI (003m-P215S (RSV) [5])?
**A.** The MFI was 270000.

**Q.** And the MFI [6]?
**A.** The MFI was 515.

**Q.** What about the MFI [7] of the same substance?
**A.** Its MFI is 93500.

**Q.** What about the MFI (RSV B-003m-P215S (RSV B) [8]) of the same substance?
**A.** Its MFI is 265000.

**Q.** And the MFI [9]?
**A.** Its MFI is 556.

**Q.** And the MFI [10]?
**A.** Its MFI is 8130.

**Q.** What about the MFI [11] of the same substance?
**A.** Its MFI is 15700.

**Q.** And the MFI [12]?
**A.** Its MFI is 4110.

**Q.** What about the MFI [13] of the same substance?
**A.** The MFI was 2480.

**Q.** And the MFI [14]?
**A.** The MFI was 67300.

**Q.** What about the MFI (RSV B-003m-P215S (RSV B) [15]) of the same substance?
**A.** The MFI was 379000.

**Q.** And the MFI [16]?
**A.** Its MFI is 7110.

**Q.** What about the MFI [17] of the same substance?
**A.** The MFI was 13100.

**Q.** What about the MFI [18] of the same substance?
**A.** Its MFI is 132000.

**Q.** What about the MFI (003m-P215S-1×GCN4t (RSV) [19]) of the same substance?
**A.** The MFI was 8390.

**Q.** And the MFI (003m-P215S-1×GCN4t (RSV) [20])?
**A.** The MFI was 5680.

**Q.** And the MFI (003m-P215S-1×GCN4t (RSV) [21])?
**A.** Its MFI is 3840.

**Q.** What about the MFI (003m-P215S-1×GCN4t (RSV) [22]) of the same substance?
**A.** The MFI was 3840.

**Q.** What about the MFI (003m-P215S-1×GCN4t (RSV) [23]) of the same substance?
**A.** The MFI was 54200.

**Q.** And the MFI [24]?
**A.** The MFI was 138000.

**Q.** What about the MFI (003m-1×GCN4t (RSV)) of the same substance?
**A.** Its MFI is 12100.

**Q.** What about the MFI (DS-Cav1 (RSV)) of the same substance?
**A.** Its MFI is 145000.

**Q.** And the MFI (DS-Cav1-1×GCN4t (RSV))?
**A.** Its MFI is 1790.

**Q.** And the MFI (DS-Cav1-2×GCN4t (RSV))?
**A.** The MFI was 1170.

**Q.** And the MFI (003m-2×GCN4t (RSV))?
**A.** The MFI was 173000.

**Q.** And the MFI [25]?
**A.** Its MFI is 35700.

**Q.** What about the MFI [26] of the same substance?
**A.** The MFI was 31600.

**Q.** What about the MFI [27] of the same substance?
**A.** Its MFI is 33900.

**Q.** What about the MFI (003m-P215S-1×GCN4t (RSV) [28]) of the same substance?
**A.** Its MFI is 32800.

**Q.** Which results are given for AM14-AF488 (antibody)?
**A.** MFI (003m-P215S-S-3N): 127000; MFI (003m-P215S (RSV) [1]): 759000; MFI (003m-P215S-ΔF111-S-3N): 1.08e+06; MFI [2]: 12500; MFI (003m-P215S-ΔF111 (RSV)): 1.52e+06; MFI (003m-P215S-1×GCN4t (RSV) [3]): 5650; MFI [4]: 821; MFI (003m-P215S-2×GCN4t (RSV)): 2680; MFI (003m-P215S (RSV) [5]): 338000; MFI [6]: 182; MFI [7]: 47600; MFI (RSV B-003m-P215S (RSV B) [8]): 353000; MFI [9]: 286; MFI [10]: 8080; MFI [11]: 3940; MFI [12]: 3670; MFI [13]: 792; MFI [14]: 36300; MFI (RSV B-003m-P215S (RSV B) [15]): 521000; MFI [16]: 5300; MFI [17]: 11300; MFI [18]: 201000; MFI (003m-P215S-1×GCN4t (RSV) [19]): 4150; MFI (003m-P215S-1×GCN4t (RSV) [20]): 3380; MFI (003m-P215S-1×GCN4t (RSV) [21]): 2560; MFI (003m-P215S-1×GCN4t (RSV) [22]): 2560; MFI (003m-P215S-1×GCN4t (RSV) [23]): 30100; MFI [24]: 206000; MFI (003m-1×GCN4t (RSV)): 6550; MFI (DS-Cav1 (RSV)): 108000; MFI (DS-Cav1-1×GCN4t (RSV)): 923; MFI (DS-Cav1-2×GCN4t (RSV)): 437; MFI (003m-2×GCN4t (RSV)): 434000; MFI [25]: 31400; MFI [26]: 33800; MFI [27]: 45700; MFI (003m-P215S-1×GCN4t (RSV) [28]): 21600
